Article doi:10.1101/2020.02.12.945170, “Regulated unbinding of ZAP70 at the T cell receptor by kinetic avidity” (bioRxiv, 2020)
Square brackets hold non-standard residues; d marks the D form. Ends that are not written are not given here. * marks the point of attachment. Biotin = O=C1N[C@H]2[C@H](CS[C@H]2CCCCC(=O)*)N1; pY = N[C@@H](Cc1ccc(OP(=O)(O)O)cc1)C(=O)O

T1: ZAP70 tSH2-GFP (tandem SH2 domains of human ZAP70, amino acids 1-264, with C-terminal GFP) (human, UniProt P43403 1-264)
T1 construct: tandem SH2 domains of human ZAP70 (Zeta-chain-associated protein kinase 70), amino acids 1-264; Cloned into pET21 between NdeI and NotI; source: E. coli BL21 (DE3), purified (Ni2+-NTA, Sephacryl S-200 size exclusion); not shown: GFP, C-terminal, kept
T1 sequence (looked up): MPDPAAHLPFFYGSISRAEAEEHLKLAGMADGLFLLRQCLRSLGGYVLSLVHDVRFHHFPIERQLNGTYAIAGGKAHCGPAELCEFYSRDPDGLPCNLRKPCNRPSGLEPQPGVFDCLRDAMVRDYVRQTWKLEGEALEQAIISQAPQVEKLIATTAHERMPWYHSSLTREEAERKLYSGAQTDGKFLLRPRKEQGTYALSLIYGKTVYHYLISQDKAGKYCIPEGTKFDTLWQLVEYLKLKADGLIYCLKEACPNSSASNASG


Experiments:
[1] = target: T1, ZAP70 tSH2-GFP (tandem SH2 domains of …); assay: SPR; Biacore S200, 37°C, HBS-EP (10 mM HEPES pH 7.4, 150 mM NaCl, 1 mM EDTA, 0.005% Tween P20), 50 µl/min; biotinylated peptides or Avi-CD3ζ ITAM3 immobilised on streptavidin-coupled CM5 chips, ZAP70 tSH2-GFP injected; 1:1 binding model, 'effective' constants for the biphosphorylated peptide; on Avi-CD3ζ ITAM3 also ABA injections of 500 nM ZAP70 with CD45 cytoplasmic domain; details: both partners purified
[2] = target: T1, ZAP70 tSH2-GFP (tandem SH2 domains of …); assay: single particle tracking by TIRF microscopy; biotinylated ITAM3 peptides immobilised on coverslips coated with poly-L-lysine-PEG-biotin and streptavidin; ZAP70 tSH2-GFP or tSH2-Halo-Alexa647 at 200 nM in PBS/BSA with 1 mM DTT; 37°C; distributions of binding times fitted with exponentials (slow phase of a two-phase decay for the biphosphorylated peptide); details: both partners purified

Binder | Kd [1] | koff [1] | kon [1] | koff [2]
Biotin-GKGHDLL[pY]QGLSTATKDT[pY]DALHMQ (peptide derived from the membrane-distal ITAM of CD3ζ (ITAM3); also called ITAM NC; biphosphorylated ITAM3; source: synthetic peptide; bought: PeptideSynthetics (>95% pure)) [ITAM3 NC (biphosphorylated CD3ζ ITAM3 peptide)] | 96 nM | 0.227 s⁻¹ | 1.89e+06 M⁻¹ s⁻¹ | 0.368 ± 0.011 s⁻¹
Biotin-GKGHDLLYQGLSTATKDT[pY]DALHMQ (peptide derived from the membrane-distal ITAM of CD3ζ (ITAM3); also called ITAM C; monophosphorylated ITAM3 C; source: synthetic peptide; bought: PeptideSynthetics (>95% pure)) [ITAM3 C (C-monophosphorylated CD3ζ ITAM3 peptide)] | – | – | – | 4.75 ± 0.14 s⁻¹
Biotin-GKGHDLL[pY]QGLSTATKDTYDALHMQ (peptide derived from the membrane-distal ITAM of CD3ζ (ITAM3); also called ITAM N; monophosphorylated ITAM3 N; source: synthetic peptide; bought: PeptideSynthetics (>95% pure)) [ITAM3 N (N-monophosphorylated CD3ζ ITAM3 peptide)] | – | – | – | 11.4 ± 0.011 s⁻¹
